# From FireProtDB (doi:10.1093/jb/mvq079)
# B1: Divalent-cation tolerance protein CutA, P69488 (parent)
# chain: MLDEKSSNTASVVVLCTAPDEATAQDLAAKVLAEKLAACATLIPGATSLYYWEGKLEQEYEVQMILKTTVSHQQALLECLKSHHPYQTPELLVLPVTHGDTDYLSWLNASLR
# Variants of: B1
# Settings: Escherichia coli (strain K12), structure 3X3U, whole UniProt chain shown; for ddG of mutation (higher = less stable) / denaturant midpoint (higher = more stable): pH 8, 37 °C, GdnHCl, CD, Tris-HCl, reversible: yes; for Tm / change of melting temperature, mutant - wild type (higher = more stable): pH 9, Thermal, DSC, glycine Buffer, transition: 2, reversible: no
variant,measurement,value
E59K,ddG of mutation (higher = less stable),-3.92 kcal/mol
same,denaturant midpoint (higher = more stable),3.01 M
same,Tm,104 °C
same,"change of melting temperature, mutant - wild type (higher = more stable)",14.3 °C
E59K E61V,ddG of mutation (higher = less stable),-5.47 kcal/mol
same,denaturant midpoint (higher = more stable),3.24 M
same,Tm,104 °C
same,"change of melting temperature, mutant - wild type (higher = more stable)",14.4 °C
E59L,ddG of mutation (higher = less stable),-2.89 kcal/mol
same,denaturant midpoint (higher = more stable),2.96 M
same,Tm,100 °C
same,"change of melting temperature, mutant - wild type (higher = more stable)",10.3 °C
E61T,ddG of mutation (higher = less stable),-3.15 kcal/mol
same,denaturant midpoint (higher = more stable),2.99 M
same,Tm,98.6 °C
same,"change of melting temperature, mutant - wild type (higher = more stable)",8.7 °C
E61V,ddG of mutation (higher = less stable),-3.42 kcal/mol
same,denaturant midpoint (higher = more stable),3.29 M
same,Tm,103 °C
same,"change of melting temperature, mutant - wild type (higher = more stable)",13.5 °C
Y86D,ddG of mutation (higher = less stable),6.38 kcal/mol
same,denaturant midpoint (higher = more stable),2.67 M
same,Tm,76.8 °C
same,"change of melting temperature, mutant - wild type (higher = more stable)",-13.1 °C
S11V,denaturant midpoint (higher = more stable),3.31 M
same,Tm,105 °C
same,"change of melting temperature, mutant - wild type (higher = more stable)",15.1 °C
S11V E59K E61T,denaturant midpoint (higher = more stable),3.48 M
S11V E61T,denaturant midpoint (higher = more stable),3.48 M
same,Tm,112 °C
same,"change of melting temperature, mutant - wild type (higher = more stable)",22.4 °C
S11V E61T Q73V,denaturant midpoint (higher = more stable),4.2 M
same,Tm,114 °C
same,"change of melting temperature, mutant - wild type (higher = more stable)",23.7 °C
S11V E61V,denaturant midpoint (higher = more stable),3.8 M
same,Tm,114 °C
same,"change of melting temperature, mutant - wild type (higher = more stable)",23.6 °C
S11V E61V Q73V,denaturant midpoint (higher = more stable),4.67 M
Q73V,denaturant midpoint (higher = more stable),3.4 M
same,Tm,94 °C
same,"change of melting temperature, mutant - wild type (higher = more stable)",4.1 °C
S11A,Tm,106 °C
same,"change of melting temperature, mutant - wild type (higher = more stable)",16.5 °C
S11I,Tm,103 °C
same,"change of melting temperature, mutant - wild type (higher = more stable)",12.8 °C
G45Q,Tm,82.1 °C
same,"change of melting temperature, mutant - wild type (higher = more stable)",-7.8 °C
E59Q,Tm,98.3 °C
same,"change of melting temperature, mutant - wild type (higher = more stable)",8.4 °C
Y60T,Tm,91.9 °C
same,"change of melting temperature, mutant - wild type (higher = more stable)",2 °C
E61H,Tm,94.3 °C
same,"change of melting temperature, mutant - wild type (higher = more stable)",4.4 °C
